Test [1] concerns the target biotinylated recombinant human DCC (human) (UniProt P43146). As to the kind of experiment: AVEXIS, prey on bait DCC; white = No binding.
The target in test [2] is T1, human DRAXIN, AVEXIS prey or bait protein (human), Q8NBI3.
T1 chain: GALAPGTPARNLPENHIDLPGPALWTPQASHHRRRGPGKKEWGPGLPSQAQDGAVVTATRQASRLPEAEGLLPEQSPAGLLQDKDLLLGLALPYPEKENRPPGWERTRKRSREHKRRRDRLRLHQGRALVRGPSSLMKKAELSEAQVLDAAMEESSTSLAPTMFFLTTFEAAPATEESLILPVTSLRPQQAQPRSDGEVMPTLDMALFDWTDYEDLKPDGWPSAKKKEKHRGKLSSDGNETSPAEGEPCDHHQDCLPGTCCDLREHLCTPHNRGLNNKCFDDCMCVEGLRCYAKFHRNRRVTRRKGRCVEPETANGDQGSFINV
As to the kind of experiment: AVEXIS, prey on bait DRAXIN; white = No binding. The conditions noted are these: remark: other sources report otherwise.

The target in test [3] is T1, human DRAXIN, AVEXIS prey or bait …. As to the kind of experiment: AVEXIS, prey on bait hDRAXIN, lower value; white = No binding. The conditions noted are these: remark: other sources report otherwise.
For test [4] the target is unchanged. The test is described as follows: AVEXIS, prey on bait hDRAXIN, upper value; white = No binding. To be noted: remark: other sources report otherwise.

B1: human Netrin-G2, AVEXIS protein (ligand, UniProt Q96CW9 18-507, looked up, not shown: small tags and cut ends)
chain: DYDICKSWVTTDEGPTWEFYACQPKVMRLKDYVKVKVEPSGITCGDPPERFCSHENPYLCSNECDASNPDLAHPPRLMFDKEEEGLATYWQSITWSRYPSPLEANITLSWNKTVELTDDVVMTFEYGRPTVMVLEKSLDNGRTWQPYQFYAEDCMEAFGMSARRARDMSSSSAHRVLCTEEYSRWAGSKKEKHVRFEVRDRFAIFAGPDLRNMDNLYTRLESAKGLKEFFTLTDLRMRLLRPALGGTYVQRENLYKYFYAISNIEVIGRCKCNLHANLCSMREGSLQCECEHNTTGPDCGKCKKNFRTRSWRAGSYLPLPHGSPNACATAGSFGNCECYGHSNRCSYIDFLNVVTCVSCKHNTRGQHCQHCRLGYYRNGSAELDDENVCIECNCNQIGSVHDRCNETGFCECREGAAGPKCDDCLPTHYWRQGCYPNVCDDDQLLCQNGGTCLQNQRCACPRGYTGVRCEQPRCDPADDDGGLDCDRAPG
Take B1: in test [1], the A486nm was 0.065.

B2: human DRAXIN, AVEXIS prey or bait protein, Q8NBI3 26-349 (ligand)
chain: T1 chain
With B2, the A486nm came out at 0.062 in test [2], 0.057 in test [3] and 0.054 in test [4].

B3: human DRAXIN, AVEXIS prey or bait protein (ligand)
chain: T1 chain
Turning to B3, in test [1], the A486nm came out at 0.072.

B4: human Netrin-4, AVEXIS protein (ligand, UniProt Q9HB63 19-628, looked up, not shown: small tags and cut ends)
chain: GLSGVAGVSSRCEKACNPRMGNLALGRKLWADTTCGQNATELYCFYSENTDLTCRQPKCDKCNAAYPHLAHLPSAMADSSFRFPRTWWQSAEDVHREKIQLDLEAEFYFTHLIVMFKSPRPAAMVLDRSQDFGKTWKPYKYFATNCSATFGLEDDVVKKGAICTSKYSSPFPCTGGEVIFKALSPPYDTENPYSAKVQEQLKITNLRVQLLKRQSCPCQRNDLNEEPQHFTHYAIYDFIVKGSCFCNGHADQCIPVHGFRPVKAPGTFHMVHGKCMCKHNTAGSHCQHCAPLYNDRPWEAADGKTGAPNECRTCKCNGHADTCHFDVNVWEASGNRSGGVCDDCQHNTEGQYCQRCKPGFYRDLRRPFSAPDACKPCSCHPVGSAVLPANSVTFCDPSNGDCPCKPGVAGRRCDRCMVGYWGFGDYGCRPCDCAGSCDPITGDCISSHTDIDWYHEVPDFRPVHNKSEPAWEWEDAQGFSALLHSGKCECKEQTLGNAKAFCGMKYSYVLKIKILSAHDKGTHVEVNVKIKKVLKSTKLKIFRGKRTLYPESWTDRGCTCPILNPGLEYLVAGHEDIRTGKLIVNMKSFVQHWKPSLGRKVMDILKRECK
Turning to B4, in test [1], the A486nm came to 0.065.

For EVMPTLDMALFDWTDYEDLKP (peptide, not shown: small tags and cut ends) [human DRAXIN 21 amino acid Netrin binding fragment, AVEXIS prey or bait protein], in test [1], the A486nm came out at 0.06.

B5: human Netrin-G1, AVEXIS protein (ligand, UniProt Q9Y2I2 29-510, looked up, not shown: small tags and cut ends)
chain: HYDLCKTQIYTEEGKVWDYMACQPESTDMTKYLKVKLDPPDITCGDPPETFCAMGNPYMCNNECDASTPELAHPPELMFDFEGRHPSTFWQSATWKEYPKPLQVNITLSWSKTIELTDNIVITFESGRPDQMILEKSLDYGRTWQPYQYYATDCLDAFHMDPKSVKDLSQHTVLEIICTEEYSTGYTTNSKIIHFEIKDRFAFFAGPRLRNMASLYGQLDTTKKLRDFFTVTDLRIRLLRPAVGEIFVDELHLARYFYAISDIKVRGRCKCNLHATVCVYDNSKLTCECEHNTTGPDCGKCKKNYQGRPWSPGSYLPIPKGTANTCIPSISSIGNCECFGHSNRCSYIDLLNTVICVSCKHNTRGQHCELCRLGYFRNASAQLDDENVCIECYCNPLGSIHDRCNGSGFCECKTGTTGPKCDECLPGNSWHYGCQPNVCDNELLHCQNGGTCHNNVRCLCPAAYTGILCEKLRCEEAGSCGS
As for B5, the A486nm in test [1] was determined as 0.063.

These data come from patent publication US20160347802A1.
